Measured values reported in the supplement of paper PMC9170038.

Legend:
MS2 coat protein [1] = experiment: apparent KD of MS2 coat protein, switch OFF state (with FMN for OFF switches, without FMN for ON switches); designed switch direction (-1 OFF switch, 1 ON switch): -1; higher = weaker reporter binding; conditions: FMN input: 0 or 200 uM; Eterna round: R93 (includes R88 designs)
Summary of the method: (§1)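 Designed RNA switches, transcribed on-chip from Illumina sequencing clusters, were titrated with SNAP-549-labelled MS2 coat protein from 0.7 or 1.5 nM to 3 µM in twofold steps. The solution was 100 mM Tris-HCl pH 7.5, 80 mM KCl, 4 mM MgCl2, with constant ligand or without it. Apparent KD is the median over each design's normalised cluster binding-curve fits.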

MS2 coat protein [2] = experiment: apparent KD of MS2 coat protein, switch ON state; designed switch direction (-1 OFF switch, 1 ON switch): -1; higher = weaker reporter binding; conditions: FMN input: 0 or 200 uM; Eterna round: R93 (includes R88 designs)
Summary of the method: as §1

CUCUAGUUAGGAUAUCGAAGAAAAGAAAAGAAAGAAAAGAACGAGAAGGAACAUGAGGAUCACCCAUGUAAGAA [EteRNA is fun!]
apparent KD of MS2 coat protein (MS2 coat protein [1]): 28 nM | apparent KD of MS2 coat protein (MS2 coat protein [2]): 29.1 nM

AAUAUGUUAGGAUAUGCGAAGUCAGGACACACACUGACGAAGCAGAAGGAACAUGAGGAUCACCCAUGUAAUAA [JR_Exclusion-4 65% 6]
apparent KD of MS2 coat protein (MS2 coat protein [1]): 26.6 nM | apparent KD of MS2 coat protein (MS2 coat protein [2]): 27.6 nM

AAAAAGUGAGGAUAUACGAUGUGGAGUAGACACAACCAGACGUAGAAGGCACAUGAGGAUCACCCAUGUCCAAA [EX4 Malc#17]
apparent KD of MS2 coat protein (MS2 coat protein [1]): 28.6 nM | apparent KD of MS2 coat protein (MS2 coat protein [2]): 21 nM

AGCAAACAUGAGGAUCACCCAUGUGAGGAUAUGAACGAAAAUAAAUAAAAAUAAAAGUUCAGAAGGUACGAGCA [66%, Wbt, 27]
apparent KD of MS2 coat protein (MS2 coat protein [1]): 31.9 nM | apparent KD of MS2 coat protein (MS2 coat protein [2]): 27.7 nM

AUUCUACAUGAGGAUCACCCAUGUGAGGAUAUGCUAUACUAUUGUUGCAAUACUUAGAGCAGAAGGCACAUCGU [JR_EXc001_Sub801]
apparent KD of MS2 coat protein (MS2 coat protein [1]): 66.2 nM | apparent KD of MS2 coat protein (MS2 coat protein [2]): 30.2 nM

AUAAGUCGAGGAUAUACAAAAUGCUAGCGAAAGCUAGCAUAACAUGAGGAUCACCCAUGUAGAAGGCGACAAUA [Tetraloop hairpin BlockHead Variation2]
apparent KD of MS2 coat protein (MS2 coat protein [1]): 21.3 nM | apparent KD of MS2 coat protein (MS2 coat protein [2]): 21.7 nM

AACAUGUCAGGAUAUGUAGCAUGAUACGAAAGUAUCAUGCUACAGAAGGGACAUGAGGAUCACCCAUGUGAUCA [Ex4: 940]
apparent KD of MS2 coat protein (MS2 coat protein [1]): 22 nM | apparent KD of MS2 coat protein (MS2 coat protein [2]): 26.7 nM

UACGUAUGAGGAUAUACAAACAGAAAAAUCAGACAUAACUGACAUGAGGAUCACCCAUGUAGAAGGCAUAUACA [JR_Exc002_Sub904]
apparent KD of MS2 coat protein (MS2 coat protein [1]): 17.4 nM | apparent KD of MS2 coat protein (MS2 coat protein [2]): 25.3 nM

AGUUGGCGAGGAUAUACAUGAGGAUCACCCAUGUGAGAAAAAAAAGUGAGAAAGAAAAGUAGAAGGCGCUGACA [Mat - Exclusion 3 - Lego mod - D88]
apparent KD of MS2 coat protein (MS2 coat protein [1]): 314 nM | apparent KD of MS2 coat protein (MS2 coat protein [2]): 54.6 nM

AAGAACUCAGGAUAUACAUGAGGAUCACCCAUGUAAAAGAAAGAGGGAAAAGAGAAAAGUAGAAGGGAGAAGAA [Ptolemy IV Philopator]
apparent KD of MS2 coat protein (MS2 coat protein [1]): 46.9 nM | apparent KD of MS2 coat protein (MS2 coat protein [2]): 14 nM

AAAGUGUCAGGAUAUGCGAAGGCAUCUGACAGAUGAGGAUCGCAGAAGGGACAUGAGGAUCACCCAUGUAAAAA
apparent KD of MS2 coat protein (MS2 coat protein [1]): 117 nM | apparent KD of MS2 coat protein (MS2 coat protein [2]): 65.6 nM

AAAACGGCAGGAUAUACAGUUGAGAACUAGACCGAAAAAAAACAUGAGGAUCACCCAUGUAGAAGGGCCAAAAA [Ex2 Malc#8]
apparent KD of MS2 coat protein (MS2 coat protein [1]): 32.5 nM | apparent KD of MS2 coat protein (MS2 coat protein [2]): 28.4 nM

UAGAAGGUAGGAUAUACUUGGGAAACUAAUGCAAAGAUAUAACAUGAGGAUCACCCAUGUAGAAGGGCCAGUAA [JR_Exc002_Sub018]
apparent KD of MS2 coat protein (MS2 coat protein [1]): 97.9 nM | apparent KD of MS2 coat protein (MS2 coat protein [2]): 114 nM

AAAAAUUGAGGAUAUACGAACAUGUCGAAAGACGUGAAGGGACAUGAGGAUCACCCAUGUAGAAGGCGAAAGAA [Mat - Exclusion 2 - JL mod - D67]
apparent KD of MS2 coat protein (MS2 coat protein [1]): 18.2 nM | apparent KD of MS2 coat protein (MS2 coat protein [2]): 33.6 nM

AAAAAGCGAGGAUAUACAUGAGGAUCACCCAUGUCAAAAAAAUAGAAAAAAAUAAAAAGUAGAAGGCGCAAAAA [Ex 3 #1]
apparent KD of MS2 coat protein (MS2 coat protein [1]): 63.6 nM | apparent KD of MS2 coat protein (MS2 coat protein [2]): 75.8 nM

GAAGAACAUGAGGAUCACCCAUGUGAGGAUAUACAGAAGGGAAUAAAAUAACCUGAAAGUAGAAGGCACAAGAA [Ex 1 May 41]
apparent KD of MS2 coat protein (MS2 coat protein [1]): 65.8 nM | apparent KD of MS2 coat protein (MS2 coat protein [2]): 45.7 nM

AAAAGGAUAGGAUAUACAUGAGGAUCACCCAUGUGAAUAAAUAAAAGAAAUAAAGAAAGUAGAAGGGUCAAGAA
apparent KD of MS2 coat protein (MS2 coat protein [1]): 22 nM | apparent KD of MS2 coat protein (MS2 coat protein [2]): 25.8 nM

GGAAAACAUGAGGAUCACCCAUGUCAGGAUAUACAAAGAAAGAAAGAAAAGAAAGAAAGUAGAAGGGACAAAAG [Amethyst 15]
apparent KD of MS2 coat protein (MS2 coat protein [1]): 31.9 nM | apparent KD of MS2 coat protein (MS2 coat protein [2]): 27.1 nM

AAAACGGCAGGAUAUACAGAUGAGAACUCGACCGAAAAAAAACAUGAGGAUCACCCAUGUAGAAGGGCCAAAAA [Ex2 Malc#6]
apparent KD of MS2 coat protein (MS2 coat protein [1]): 61.9 nM | apparent KD of MS2 coat protein (MS2 coat protein [2]): 30.1 nM
